{"source": "patent US7893027B2", "about": "“Treatment of ocular wounds and ulcers” (The Board of Regents of the University of Oklahoma, priority 2002, dated 2011)", "molecules": {"B1": {"name": "CAP37: Cationic Antimicrobial Protein of Mr 37 kDa; recombinant protein from human 293 cells, identical to native PMN-derived CAP37 (SEQ ID NO:1) (protein, listed as Homo sapiens)", "chain": "IVGGRKARPRQFPFLASIQNQGRHFCGGALIHARFVMTAASCFQSQNPGVSTVVLGAYDLRRRERQSRQTFSISSMSENGYDPQQNLNDLMLLQLDREANLTSSVTILPLPLQNATVEAGTRCQVAGWGSQRSGGRLSRFPRFVNVTVTPEDQCRPNNVCTGVLTRRGGICNGDGGTPLVCEGLAHGVASFSLGPCGRGPDFFTRVALFRDWIDGVLNNPGP"}}, "key": {"E-selectin": {"system": "E-selectin", "test": "RT-PCR of adhesion molecule mRNA in HCEC", "type": "cell-based, human", "details": "CAP37 1 μg/ml, 0-24 hr", "protocol": "(§1) Cultured HCEC were treated with CAP37 (1 μg/ml) for 0-24 hr at 37° C. Total cellular RNA was isolated from untreated and treated HCEC according to vendor specifications (TRIzol™, GIBCO BRL). After reverse-transcription of 5 μg of total RNA by SuperScript™ II RT (GIBCOBRL) the resulting single stranded cDNA was amplified by PCR (BIOMETRA TGRADIENT, Göttingen, Germany) using specific primers for ICAM-1 (([…] (SEQ ID NO:11) and […] (SEQ ID NO:12)); VCAM-1 (([…] (SEQ ID NO:13) and […] (SEQ ID NO:14)); PECAM-1 (([…] (SEQ ID NO:15) and […] (SEQ ID NO:16)); E-selectin (([…] (SEQ ID NO:17) and […] (SEQ ID NO:18)); and β-actin ((TACCTCATGAAGATCCTCA (SEQ ID NO:19) and TTCGTGGATGCCACAGGAC (SEQ ID NO:20))) synthesized by the Molecular Biology Resource Facility, University of Oklahoma Health Sciences Center. The thermocycler conditions for ICAM-1 and VCAM-1 were 95° C. for 5 min initially, with 30 cycles at 95° C. for 1 min, 58° C. for 45 sec, 72° C. for 1 min followed by a final extension at 72° C. for 7 min. The conditions for E-selectin were 95° C. for 5 min initially, with 30 cycles at 94° C. for 1 min, 58° C. for 1 min, 72° C. for 1 min followed by a final extension at 72° C. for 5 min. The conditions for PECAM-1 were 95° C. for 5 min initially, with 30 cycles at 95° C. for 45 sec, 60° C. for 1 min, 72° C. for 1 min followed by a final extension at 72° C. for 5 min.\n(§2) Amplified DNA fragments were separated by electrophoresis on a 1% agarose gel and visualized by exposure to UV after ethidium bromide (0.5 μg/ml) staining. Expected sizes for ICAM-1, VCAM-1, PECAM-1, E-selectin and β-actin were 943 bp, 700 bp, 677 bp, 315 bp and 267 bp, respectively. To assess the integrity of the cDNA, primers for human β-actin were used."}, "PECAM-1": {"system": "PECAM-1", "test": "RT-PCR of adhesion molecule mRNA in HCEC", "type": "cell-based, human", "details": "CAP37 1 μg/ml", "protocol": "as §1, §2"}, "ICAM-1": {"system": "ICAM-1", "test": "RT-PCR of adhesion molecule mRNA in HCEC", "type": "cell-based, human", "details": "CAP37 1 μg/ml, beginning at 2 hr and lasting through 24 hr", "protocol": "as §1, §2"}, "VCAM-1": {"system": "VCAM-1", "test": "RT-PCR of adhesion molecule mRNA in HCEC", "type": "cell-based, human", "details": "CAP37 1 μg/ml, 0-24 hr", "protocol": "as §1, §2"}, "[1]": {"system": "human corneal epithelial cells (HCEC)", "test": "CyQUANT cell proliferation assay", "type": "cell-based", "details": "for Increase in cell numbers: 72 hr post treatment", "protocol": "Human corneal epithelial cells were seeded onto 48 well tissue culture plates (7.5×10^3 cells/well, FALCON, Franklin Lakes, N.J.) and cultured as described above.\nCultures were changed to growth factor-free basic medium overnight and treated with various concentrations of CAP37 (0-2000 ng/ml) for 48-72 hrs. Recombinant human Epidermal Growth Factor (EGF 50 ng/ml, BECTON DICKINSON, Bedford, Mass.) and recombinant human Hepatocyte Growth Factor/Scatter Factor (HGF/SF 20 ng/ml, BECTON DICKINSON) were used as positive controls and growth factor-free basic medium as negative control. The medium was aspirated and new medium with CAP37 or growth factors were added to the cultures every 24 hr. The CyQUANT Cell Proliferation Assay Kit (MOLECULAR PROBES, Eugene, Oreg.) was used to quantify cell proliferation exactly according to the manufacturer's specifications. Briefly, cells were frozen, thawed, and lysed with the addition of the lysis buffer containing the green fluorescent dye, CyQUANT GR which binds to nucleic acids and the fluorescence levels read on fluorescent micro plate reader (fmax MOLECULAR DEVICES, Sunnyvale, Calif.) with filters for 485 nm excitation and 538 nm emission."}}, "data": [{"molecule": "B1", "values": [{"measurement": "mRNA expression of E-selectin", "setting": "E-selectin", "result": "did not show increase in mRNA expression"}, {"measurement": "Time PECAM-1 message first detected after stimulation", "setting": "PECAM-1", "result": 2, "unit": "h"}, {"measurement": "Time of maximum PECAM-1 message", "setting": "PECAM-1", "result": 4, "unit": "h"}, {"measurement": "PECAM-1 message", "setting": "PECAM-1; transient, not detected after 6 hr", "result": "upregulated"}, {"measurement": "ICAM-1 message", "setting": "ICAM-1", "result": "clear upregulation of ICAM-1 message"}, {"measurement": "mRNA expression of VCAM-1", "setting": "VCAM-1", "result": "did not show increase in mRNA expression"}, {"measurement": "Levels of proliferation relative to positive controls", "setting": "[1]; 1000-2000 ng/ml, 48 hours", "result": "comparable to those obtained with the two positive controls, EGF and HGF"}, {"measurement": "Proliferation of HCEC", "setting": "[1]; 48 hours post treatment, versus culture medium alone", "result": "significant increase in proliferation over basal levels"}, {"measurement": "Increase in cell numbers", "setting": "[1]; 1000 ng/ml", "result": "approximately two"}, {"measurement": "Increase in cell numbers", "setting": "[1]; 2000 ng/ml", "result": "three"}]}]}
